{"source": "patent US20250090695A1", "about": "“IMMUNOSTIMULANT-CYTOTOXIC CONJUGATE COMPOSITION AND METHODS FOR CANCER TREATMENT” (The Research Foundation for the State University of New York, priority 2022, published 2025)", "key": {"[1]": {"system": "CD8+ and CD4+ T-cell populations", "assay": "T-cell population analysis in spleen and tumor of RM1-PGLS bearing mice", "type": "in vivo", "set-up": "unit not given here", "settings": "RM1-PGLS bearing C57BL/6J mice", "method": "FIG. 12A-12B show graphical representations of T-cell population analysis measuring cell viability in the spleen (FIG. 12A). and in the tumor (FIG. 12B) in vivo for subjects having RM1-PGLS tumors with either an experimental ^177Lu-RIMS compound, or a control compound selected from: ^177Lu-PSMA-617, unlabeled Lu-RIMS, or a control vehicle.\n^177Lu-RIMS-1 and control compounds were evaluated for immune cell recruitment."}, "in vivo": {"assay": "in vivo", "settings": "C57BL/6J, mouse, total radioactivity"}, "[2]": {"assay": "OLINDA dosimetry to adult male from mouse biodistribution"}, "[3]": {"settings": "Biodistribution Blood (% ID/g ± SD)"}, "[4]": {"settings": "Biodistribution Bone (% ID/g ± SD)"}, "[5]": {"settings": "Biodistribution Heart (% ID/g ± SD)"}, "[6]": {"settings": "Biodistribution Kidney (% ID/g ± SD)"}, "[7]": {"settings": "Biodistribution Liver (% ID/g ± SD)"}, "[8]": {"settings": "Biodistribution Muscle (% ID/g ± SD)"}, "[9]": {"settings": "Biodistribution RM1-PGLS tumor (% ID/g ± SD)"}, "[10]": {"settings": "Biodistribution Sm Int (% ID/g ± SD)"}, "[11]": {"settings": "Biodistribution Spleen (% ID/g ± SD)"}}}
{"smiles": "CCCCc1nc2c(N)nc3ccccc3c2n1Cc1ccc(CNC(=O)OCc2ccc(NC(=O)[C@H](C)NC(=O)[C@@H](NC(=O)CCCCC(=O)N[C@@H](CCCCNC(=O)CN3CCN(CC(=O)O)CCN(CC(=O)O)CCN(CC(=O)O)CC3)C(=O)NC[C@H]3CC[C@H](C(=O)N[C@@H](Cc4ccc5ccccc5c4)C(=O)NCCCC[C@H](NC(=O)N[C@@H](CCC(=O)O)C(=O)O)C(=O)O)CC3)C(C)C)cc2)cc1", "note": "[^177Lu-RIMS-1, metal not drawn]", "values": [{"measurement": "Total CD4+ T-cell population", "setting": "[1]; Spleen", "result": "14.51 ± 2.24"}, {"measurement": "Total CD8+ T-cell population", "setting": "[1]; Spleen", "result": "7.70 ± 0.84"}, {"measurement": "Total CD4+ T-cell population", "setting": "[1]; Tumor", "result": "2.07 ± 1.54"}, {"measurement": "Total CD8+ T-cell population", "setting": "[1]; Tumor", "result": "4.72 ± 2.70"}, {"measurement": "tissue uptake at 2 h", "setting": "in vivo; [3]", "result": "2.28 ± 0.29", "unit": "%ID/g"}, {"measurement": "tissue uptake at 24 h", "setting": "in vivo; [3]", "result": "0.11 ± 0.01", "unit": "%ID/g"}, {"measurement": "tissue uptake at 72 h", "setting": "in vivo; [3]", "result": 0.2, "unit": "%ID/g"}, {"measurement": "tissue uptake at 2 h", "setting": "in vivo; [4]", "result": "1.03 ± 0.43", "unit": "%ID/g"}, {"measurement": "tissue uptake at 24 h", "setting": "in vivo; [4]", "result": "0.24 ± 0.1", "unit": "%ID/g"}, {"measurement": "tissue uptake at 72 h", "setting": "in vivo; [4]", "result": "0.14 ± 0.02", "unit": "%ID/g"}, {"measurement": "tissue uptake at 2 h", "setting": "in vivo; [5]", "result": "0.83 ± 0.09", "unit": "%ID/g"}, {"measurement": "tissue uptake at 24 h", "setting": "in vivo; [5]", "result": "0.13 ± 0.11", "unit": "%ID/g"}, {"measurement": "tissue uptake at 72 h", "setting": "in vivo; [5]", "result": "0.03 ± 0.01", "unit": "%ID/g"}, {"measurement": "tissue uptake at 2 h", "setting": "in vivo; [6]", "result": "15.3 ± 3.61", "unit": "%ID/g"}, {"measurement": "tissue uptake at 24 h", "setting": "in vivo; [6]", "result": "5.03 ± 2.2", "unit": "%ID/g"}, {"measurement": "tissue uptake at 72 h", "setting": "in vivo; [6]", "result": "1.66 ± 0.37", "unit": "%ID/g"}, {"measurement": "tissue uptake at 2 h", "setting": "in vivo; [7]", "result": "23.4 ± 6.93", "unit": "%ID/g"}, {"measurement": "tissue uptake at 24 h", "setting": "in vivo; [7]", "result": "8.69 ± 1.53", "unit": "%ID/g"}, {"measurement": "tissue uptake at 72 h", "setting": "in vivo; [7]", "result": "7.28 ± 1.06", "unit": "%ID/g"}, {"measurement": "tissue uptake at 2 h", "setting": "in vivo; [8]", "result": "0.27 ± 0.08", "unit": "%ID/g"}, {"measurement": "tissue uptake at 24 h", "setting": "in vivo; [8]", "result": "0.04 ± 0.03", "unit": "%ID/g"}, {"measurement": "tissue uptake at 72 h", "setting": "in vivo; [8]", "result": "0.02 ± 0.01", "unit": "%ID/g"}, {"measurement": "tissue uptake at 2 h", "setting": "in vivo; [9]", "result": "1.98 ± 0.37", "unit": "%ID/g"}, {"measurement": "tissue uptake at 24 h", "setting": "in vivo; [9]", "result": "0.66 ± 0.24", "unit": "%ID/g"}, {"measurement": "tissue uptake at 72 h", "setting": "in vivo; [9]", "result": "0.23 ± 0.06", "unit": "%ID/g"}, {"measurement": "tissue uptake at 2 h", "setting": "in vivo; [10]", "result": "0.55 ± 0.3", "unit": "%ID/g"}, {"measurement": "tissue uptake at 24 h", "setting": "in vivo; [10]", "result": "0.07 ± 0.02", "unit": "%ID/g"}, {"measurement": "tissue uptake at 72 h", "setting": "in vivo; [10]", "result": "0.05 ± 0.01", "unit": "%ID/g"}, {"measurement": "tissue uptake at 2 h", "setting": "in vivo; [11]", "result": "10.3 ± 2.96", "unit": "%ID/g"}, {"measurement": "tissue uptake at 24 h", "setting": "in vivo; [11]", "result": "2.16 ± 0.73", "unit": "%ID/g"}, {"measurement": "tissue uptake at 72 h", "setting": "in vivo; [11]", "result": "1.14 ± 0.36", "unit": "%ID/g"}, {"measurement": "OLINDA dosimetry to Adult Male, Adrenals", "setting": "[2]; Target Organ Adrenals", "result": 8.71, "unit": "μSv/MBq"}, {"measurement": "OLINDA dosimetry to Adult Male, Brain", "setting": "[2]; Target Organ Brain", "result": 0.02, "unit": "μSv/MBq"}, {"measurement": "OLINDA dosimetry to Adult Male, Esophagus", "setting": "[2]; Target Organ Esophagus", "result": 2.03, "unit": "μSv/MBq"}, {"measurement": "OLINDA dosimetry to Adult Male, Eyes", "setting": "[2]; Target Organ Eyes", "result": 0.02, "unit": "μSv/MBq"}, {"measurement": "OLINDA dosimetry to Adult Male, Gallbladder Wall", "setting": "[2]; Target Organ Gallbladder Wall", "result": 7.09, "unit": "μSv/MBq"}, {"measurement": "OLINDA dosimetry to Adult Male, Heart Wall", "setting": "[2]; Target Organ Heart Wall", "result": 16.60, "unit": "μSv/MBq"}, {"measurement": "OLINDA dosimetry to Adult Male, Kidneys", "setting": "[2]; Target Organ Kidneys", "result": 262.00, "unit": "μSv/MBq"}, {"measurement": "OLINDA dosimetry to Adult Male, Left Colon", "setting": "[2]; Target Organ Left Colon", "result": 1.26, "unit": "μSv/MBq"}, {"measurement": "OLINDA dosimetry to Adult Male, Liver", "setting": "[2]; Target Organ Liver", "result": 219.00, "unit": "μSv/MBq"}, {"measurement": "OLINDA dosimetry to Adult Male, Lungs", "setting": "[2]; Target Organ Lungs", "result": 15.10, "unit": "μSv/MBq"}, {"measurement": "OLINDA dosimetry to Adult Male, Osteogenic Cells", "setting": "[2]; Target Organ Osteogenic Cells", "result": 3.70, "unit": "μSv/MBq"}, {"measurement": "OLINDA dosimetry to Adult Male, Pancreas", "setting": "[2]; Target Organ Pancreas", "result": 2.49, "unit": "μSv/MBq"}, {"measurement": "OLINDA dosimetry to Adult Male, Prostate", "setting": "[2]; Target Organ Prostate", "result": 0.34, "unit": "μSv/MBq"}, {"measurement": "OLINDA dosimetry to Adult Male, Rectum", "setting": "[2]; Target Organ Rectum", "result": 0.25, "unit": "μSv/MBq"}, {"measurement": "OLINDA dosimetry to Adult Male, Red Marrow", "setting": "[2]; Target Organ Red Marrow", "result": 1.39, "unit": "μSv/MBq"}, {"measurement": "OLINDA dosimetry to Adult Male, Right Colon", "setting": "[2]; Target Organ Right Colon", "result": 1.94, "unit": "μSv/MBq"}, {"measurement": "OLINDA dosimetry to Adult Male, Salivary Glands", "setting": "[2]; Target Organ Salivary Glands", "result": 0.05, "unit": "μSv/MBq"}, {"measurement": "OLINDA dosimetry to Adult Male, Small Intestine", "setting": "[2]; Target Organ Small Intestine", "result": 3.60, "unit": "μSv/MBq"}]}
